Results from patent US8999342B2, “Anti-fibroblast activation protein antibodies and methods and uses thereof” (Ludwig Institute for Cancer Research, Ltd., priority 2009, dated 2015).
Entries after “also recorded” stand apart in the source; their conditions may differ.

Key:
FAP [1] = molecular target: T1, FAP (Homo sapiens, UniProt Q12884); conditions: cited from earlier work
T1 sequence (Q12884 1-760): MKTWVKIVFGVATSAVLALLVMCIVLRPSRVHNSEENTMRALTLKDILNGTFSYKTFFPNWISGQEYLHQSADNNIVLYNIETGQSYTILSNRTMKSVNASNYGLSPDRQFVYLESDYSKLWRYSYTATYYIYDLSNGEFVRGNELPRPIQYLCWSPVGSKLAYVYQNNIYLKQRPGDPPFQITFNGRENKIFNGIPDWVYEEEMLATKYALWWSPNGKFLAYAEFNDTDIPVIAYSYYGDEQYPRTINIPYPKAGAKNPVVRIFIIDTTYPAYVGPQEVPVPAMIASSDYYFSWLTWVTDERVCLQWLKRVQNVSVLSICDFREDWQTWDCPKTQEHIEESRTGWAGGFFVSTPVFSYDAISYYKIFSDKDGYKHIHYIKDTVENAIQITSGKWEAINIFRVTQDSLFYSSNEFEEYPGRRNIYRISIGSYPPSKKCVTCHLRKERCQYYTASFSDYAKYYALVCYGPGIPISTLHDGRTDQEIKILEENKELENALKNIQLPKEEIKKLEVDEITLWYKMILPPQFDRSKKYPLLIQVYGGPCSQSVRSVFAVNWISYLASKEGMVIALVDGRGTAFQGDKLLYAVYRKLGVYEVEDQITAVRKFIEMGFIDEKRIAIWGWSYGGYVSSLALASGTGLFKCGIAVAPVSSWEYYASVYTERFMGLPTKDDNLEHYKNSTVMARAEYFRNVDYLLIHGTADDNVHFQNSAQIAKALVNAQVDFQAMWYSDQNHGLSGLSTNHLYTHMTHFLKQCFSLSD

FAP [2] = molecular target: T1, FAP; assay: Antibody mediated down-regulation of FAP expression; type: cell-based; parameters: expressed in transfected cells; host or cells: HT1080 (FAP-transfected); conditions: FAP-transfected tumor cell lines (HT1080FAP), over night incubation, F19 staining
Experimental: For detection of loss of FAP expression, sub-confluent HT1080FAP cultures were trypsinized, washed with PBS and resuspended in RPMI, 10% FBS at 5×10^5 cells and 0.5 ml per well seeded in 12 well cell culture plates and the indicated concentration of ESCHIgG was added. After over night incubation, cells were trypsinized washed and stained with 10 ug/ml F19 followed by FITC-conjugated polyclonal goat anti-mouse. Fluorescence intensity of the cells was analyzed by flow cytometry. % FAP expression was calculated (100/(signal 0 ug/ml ESC11IgG−background signal))*(signal with ESC11IgG−backgroundsignal). One representative of three independent experiments is shown.

FAP [3] = molecular target: T1, FAP; assay: Competition assay on HT1080hFAP cells by flow cytometry; type: binding; parameters: expressed in transfected cells; host or cells: HT1080 (FAP-transfected); conditions: IgG at 5 ug/ml before ESC11/ESC14 Fab fragments; HT1080FAP cells, 4° C.
Experimental: For measuring the competitive binding of ESC11 and ESC14, Fab fragments were titered on HT1080hFAP cells and binding was determined by flow cytometry. The concentration resulting in 90% of the maximal binding was used for the competition assay. HT1080FAP were incubated with the indicated antibodies at 5 ug/ml for 20 min at 4° C., then the ESC11-/ESC14 Fab fragments or PBS added at the pre-determined concentrations and incubated for 20 min at 4° C. Cells were washed once with PBS at 4° C. and fixed with 2% PFA on ice. Bound Fab fragment was detected by the myc-tag with biotinylated anti-myc and PE conjugated streptavidin. Cells were then analyzed by flow cytometry as described.

HT1080FAP cells = assay: Internalization of FAP-antibody complexes by fluorescence microscopy; type: cell-based; conditions: DyLight 488 labelled antibody, 37° C., two hours, acidic wash
Experimental: HT1080FAP cells were incubated with fluorescence labelled anti-FAP antibody Esc11 DYLIGHT® […] (flurorochrome conjugated antibody, ThermoScientific). […] When cells were warmed up to 37° C., rapid internalisation of FAP-Esc11 complexes could be detected with cytoplasmatic spots and vesicular accummulation (FIG. 11B).
Methods: HT1080FAP were grown on fibronectin coated glas slides over night. The cells were then treated with DYLIGHT® (Thermo Scientific) labeled ESC11IgG at either 4° C. or 37° C. for indicated time points. The cover slides were then mounted with flouromount for fluorescence microscopy. ESC11 DYLIGHT® 488 was detected at extention wavelaength of 488 nm and an emission of 518 nm. The results are depicted in FIG. 11.

[4] = molecular target: T2, dipeptidylpeptidase activity of FAP (Homo sapiens, UniProt Q12884); assay: Fluorogenic dipeptidyl peptidase activity assay (Ala-Pro-AFC); type: biochemical; conditions: 30 μg/ml IgGs added to extracts of human AF; Ala-Pro-AFC substrate
T2 construct: native FAP expressed on human AF; endogenous in cells
T2 sequence (Q12884 1-760): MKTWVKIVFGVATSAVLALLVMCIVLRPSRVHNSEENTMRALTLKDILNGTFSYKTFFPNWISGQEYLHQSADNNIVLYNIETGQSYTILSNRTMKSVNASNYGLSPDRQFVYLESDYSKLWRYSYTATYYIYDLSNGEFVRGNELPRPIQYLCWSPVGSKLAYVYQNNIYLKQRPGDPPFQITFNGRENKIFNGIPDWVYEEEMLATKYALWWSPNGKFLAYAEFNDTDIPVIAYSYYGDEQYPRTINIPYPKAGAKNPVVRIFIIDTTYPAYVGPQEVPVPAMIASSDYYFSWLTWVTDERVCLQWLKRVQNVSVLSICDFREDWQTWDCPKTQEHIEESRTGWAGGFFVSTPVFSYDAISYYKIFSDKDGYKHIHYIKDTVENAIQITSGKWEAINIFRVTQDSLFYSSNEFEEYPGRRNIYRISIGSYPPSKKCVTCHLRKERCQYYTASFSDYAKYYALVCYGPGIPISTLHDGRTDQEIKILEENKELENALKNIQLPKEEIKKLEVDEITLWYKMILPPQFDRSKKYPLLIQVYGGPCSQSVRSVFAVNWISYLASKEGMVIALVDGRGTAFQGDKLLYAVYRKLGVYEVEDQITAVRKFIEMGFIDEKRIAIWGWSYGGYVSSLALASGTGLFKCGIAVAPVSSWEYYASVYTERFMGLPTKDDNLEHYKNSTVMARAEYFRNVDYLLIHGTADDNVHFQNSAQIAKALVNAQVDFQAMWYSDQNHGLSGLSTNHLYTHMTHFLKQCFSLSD
Experimental: Fluorogenic Dipeptidyl Peptidase Activity Assay.
The diluted extracts were incubated with 0.5 mM Ala-Pro-AFC in 96-well plates at 37° C. and release of free AFC was monitored over time on a fluorescence reader (Victor Wallac, Perkin Elmer), using a 395 nm excitation/530 nm emission filter set. Dipeptidyl peptidase activity was determined from the slope of the fluorescence readings, after subtraction of background activity from a FAP negative sample.

[5] = system: HEK293 cells stably transfected with mouse FAP; assay: Detection of apoptotic cells by Annexin V staining, FAP-transfected cells; type: cell-based
[6] = system: mock-transfected Hek293 cells; assay: Detection of apoptotic cells by Annexin V staining, mock-transfected cells; type: cell-based
Experimental: Detection of Apoptotic Cells by Annexin V Staining.
FAP- and mock-transfected Hek293 cells were incubated in DMEM supplemented with 10% FBS in the presence of indicated amount of antibodies at RT. Control samples were either incubated in the absence of antibodies or at 4° C. in the presence of antibodies. After 60 min, cells were washed and stained with Propidium Iodide (Sigma) and Annexin V (Roche) following the manufacturer's instructions and the percentage of apoptosis was determined using flow cytometry.

CD26 = molecular target: T3, CD26 (Homo sapiens, UniProt P27487); assay: Binding specificity by ELISA on cell lysates, CD26; conditions: HEK293 huCD26+ lysates
T3 construct: expressed in transfected cells; host or cells: HEK293 c-18 (ATCC CRL-10852), pEAK 8 vector; cell lysate coated on the plate
T3 sequence (P27487 whole entry): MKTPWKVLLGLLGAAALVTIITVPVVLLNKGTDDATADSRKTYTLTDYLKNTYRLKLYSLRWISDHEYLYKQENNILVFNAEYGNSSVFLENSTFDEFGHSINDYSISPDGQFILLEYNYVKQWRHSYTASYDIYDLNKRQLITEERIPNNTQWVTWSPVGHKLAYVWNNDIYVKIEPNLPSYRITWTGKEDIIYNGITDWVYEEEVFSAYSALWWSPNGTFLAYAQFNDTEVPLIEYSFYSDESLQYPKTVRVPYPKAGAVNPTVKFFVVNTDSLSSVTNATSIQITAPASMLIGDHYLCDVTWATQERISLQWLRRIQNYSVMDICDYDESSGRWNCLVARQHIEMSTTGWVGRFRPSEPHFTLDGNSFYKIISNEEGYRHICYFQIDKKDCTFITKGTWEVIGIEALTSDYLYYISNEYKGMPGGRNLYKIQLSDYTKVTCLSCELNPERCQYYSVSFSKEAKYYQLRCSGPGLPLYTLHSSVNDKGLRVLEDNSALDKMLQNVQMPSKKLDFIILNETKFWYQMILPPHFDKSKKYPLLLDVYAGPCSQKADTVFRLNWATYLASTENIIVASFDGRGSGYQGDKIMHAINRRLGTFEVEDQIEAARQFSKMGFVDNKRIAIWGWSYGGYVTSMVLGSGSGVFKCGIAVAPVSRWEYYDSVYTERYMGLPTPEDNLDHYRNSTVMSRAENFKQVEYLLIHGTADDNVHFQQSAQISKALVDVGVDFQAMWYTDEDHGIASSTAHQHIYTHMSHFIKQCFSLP
Experimental: FIG. 3: Specificity of Fabs ESC11 and ESC14. A. ELISA of Fabs (100 nM) binding to cell-lysate-coated plates. HT1080 FAP^+ (black bars), HT1080 (white bars), HEK293 huCD26^+ (striped bars), HEK293 muFAP^+ (grey bars), HEK293 mock transfected line (hatched bars). B. FACS analysis of Fab ESC11 (black line), ESC14 (grey line), and a non-binding control Fab (filled) on HT1080 FAP^+ cells (left) and 293 muFAP^+ cells (right)
Screening of Supernatants by ELISA and Flow Cytometry.
Supernatants of the output libraries after each selection round, and supernatants of individual bacterial clones after rounds three, four, and five were screened for FAP-binding phage by ELISA. Ninety-six-well microtiter plates (MAXISORP® Nunc) were coated with cell extracts cell extracts from HEK293 huFAP, HEK293 huCD26, HEK293 muFAP, or mock-transfected HEK293, blocked with 5% milk powder in PBS, incubated with phage-containing supernatants for 1 hr at room temperature and developed using an anti-M13-HRP conjugated antibody. […] Bound Fab antibody was detected with anti-myc tag antibody 9E10, followed by an anti-mouse immunoglobulin-PE conjugate. For competition assays, Fab antibodies were detected using biotinylated anti-myc tag 9E10, followed by strep-PE.

FAP-expressing cells = assay: Attachment assay to ECM proteins; type: cell-based; conditions: antibodies 10 ug/ml, 30 min preincubation
Experimental: Ninety-six-well microtiter plates (MAXISORP®, Nunc) were coated with indicated proteins at a concentration of 50 ug/ml and incubated over night at 4° C. Plates were washed three times with PBS and then blocked with 1% BSA for 60 min at 37° C. Cells were preincubated for 30 min with indicated antibodies at a final concentration of 10 ug/ml and then added to the coated plates. After 60 min, plates were washed with PBS to remove non adherent cells. Attached cells were stained using cristal violet and lysed by addition of Isopropanol with 0.4M HCl at a final volume of 75 ul/well. OD560 was measured on a ELISA reader.

For Sibrotuzumab: humanized version of F19, the Safety and tolerability (FAP [1]; patients, phase I and phase II trials) is listed as “safe and well tolerated”, the “Accumulation at the tumor area” value (FAP [1]; trace-labelling with ^131I, imaging analysis) is listed as “specific accumulation” and the “Anti-tumor or therapeutic activity” value (FAP [1]; unconjugated antibody, patients) is listed as “no anti-tumor or any therapeutic activity”.

B1: ESC11 IgG1: ESC11 variable domains in full human IgG1 format; heavy chain H to Q at position 1 (SEQ ID NO: 2) (antibody, V domains shown)
VH: QVQLQESGPGLVKPSETLSLTCTVSGGSISSNNYYWGWIRQTPGKGLEWIGSIYYSGSTNYNPSLKSRVTISVDTSKNQFSLKLSSVTAADTAVYYCARGARWQARPATRIDGVAFDIWGQGTMVTVSS
VL: ETTLTQSPGTLSLSPGERATLSCRASQTVTRNYLAWYQQKPGQAPRLLMYGASNRAAGVPDRFSGSGSGTDFTLTISRLEPEDFAVYYCQQFGSPYTFGQGTKVEIK
With B1 the “Down-regulation of FAP expression” value (FAP [2]) was “down-regulation of FAP expression; also recorded: dose-dependent reduction of FAP”, the “Competition for FAP binding” value (FAP [3]) was “cross-inhibition” and the “Internalisation of FAP-antibody complexes” value (HT1080FAP cells) was “most of the antibody had internalized”.

B2: ESC11 Fab fragment: fully human anti-FAP Fab from phage library; VH SEQ ID NO: 1, VL SEQ ID NO: 3 (antibody, listed as Homo sapiens, V domains shown)
VH: HVQLQESGPGLVKPSETLSLTCTVSGGSISSNNYYWGWIRQTPGKGLEWIGSIYYSGSTNYNPSLKSRVTISVDTSKNQFSLKLSSVTAADTAVYYCARGARWQARPATRIDGVAFDIWGQGTMVTVSS
VL: ETTLTQSPGTLSLSPGERATLSCRASQTVTRNYLAWYQQKPGQAPRLLMYGASNRAAGVPDRFSGSGSGTDFTLTISRLEPEDFAVYYCQQFGSPYTFGQGTKVEIK
With B2 the “Down-regulation of FAP expression” value (FAP [2]) was “could not been observed”.

B3: ESC14: anti-FAP antibody clone ESC14, format (Fab or IgG) given by the context of the place (antibody, V domains shown)
VH: EVQLVQSGAEVKKPGASVKVSCKASGYTFTSYGISWVRQAPGQGLEWMGWISAYNGNTNYAQKLQGRVTMTTDTSTSTAYMELRSLRSDDTAVYYCARDWSRSGYYLPDYWGQGTLVTVSS
VL: DVVMTQSPLSLPVTLGQPASISCRSSQSLLHSNGYNYLDWYLQRPGQSPHLLIFLGSNRASGVPDRFSGSGSGTDFTLKISRVEAEDVGIYYCMQALQTPPTFGQGTKVEIK
In the case of B3, the “Down-regulation of FAP expression” value (FAP [2]) is reported as “rapid FAP down-regulation”, the “Effect on DPP (protease) activity of FAP” value [4] is reported as “no direct influence” and the “Induction of apoptosis in the cold” value ([5]; 4° C.) is reported as “could not be induced”. The Induction of apoptosis ([5]; HEK293 stably transfected with mouse FAP, RT, 60 min, Annexin V) was “underwent apoptosis; also recorded: Induction of apoptosis”, the “Induction of apoptosis in mock-transfected cells” value [6] was “not altered at all” and the “Cross-reaction with CD26” value (CD26) was “no binding”. The “Attachment of FAP-expressing cells to ECM proteins (matrigel, type I collagen)” value (FAP-expressing cells) was “significant inhibition”.

B4: ESC14 IgG1: ESC14 variable domains cloned into a full human IgG1 format (antibody, V domains shown)
VH: EVQLVQSGAEVKKPGASVKVSCKASGYTFTSYGISWVRQAPGQGLEWMGWISAYNGNTNYAQKLQGRVTMTTDTSTSTAYMELRSLRSDDTAVYYCARDWSRSGYYLPDYWGQGTLVTVSS
VL: DVVMTQSPLSLPVTLGQPASISCRSSQSLLHSNGYNYLDWYLQRPGQSPHLLIFLGSNRASGVPDRFSGSGSGTDFTLKISRVEAEDVGIYYCMQALQTPPTFGQGTKVEIK
For B4, the “Down-regulation of FAP expression” value (FAP [2]) was “down-regulation of FAP expression; also recorded: dose-dependent reduction of FAP” and the “Competition for FAP binding” value (FAP [3]) was “cross-inhibition”.

B5: ESC14 Fab fragment: fully human anti-FAP Fab from phage library; VH SEQ ID NO: 7, VL SEQ ID NO: 8 (antibody, listed as Homo sapiens, V domains shown)
VH: EVQLVQSGAEVKKPGASVKVSCKASGYTFTSYGISWVRQAPGQGLEWMGWISAYNGNTNYAQKLQGRVTMTTDTSTSTAYMELRSLRSDDTAVYYCARDWSRSGYYLPDYWGQGTLVTVSS
VL: DVVMTQSPLSLPVTLGQPASISCRSSQSLLHSNGYNYLDWYLQRPGQSPHLLIFLGSNRASGVPDRFSGSGSGTDFTLKISRVEAEDVGIYYCMQALQTPPTFGQGTKVEIK
In the case of B5, the “Down-regulation of FAP expression” value (FAP [2]) is reported as “could not been observed”.
